For this experiment, the target named is T1, fragment C of tetanus toxoid (Sigma, T3694) (Clostridium tetani, UniProt P04958 865-1315).
T1 sequence: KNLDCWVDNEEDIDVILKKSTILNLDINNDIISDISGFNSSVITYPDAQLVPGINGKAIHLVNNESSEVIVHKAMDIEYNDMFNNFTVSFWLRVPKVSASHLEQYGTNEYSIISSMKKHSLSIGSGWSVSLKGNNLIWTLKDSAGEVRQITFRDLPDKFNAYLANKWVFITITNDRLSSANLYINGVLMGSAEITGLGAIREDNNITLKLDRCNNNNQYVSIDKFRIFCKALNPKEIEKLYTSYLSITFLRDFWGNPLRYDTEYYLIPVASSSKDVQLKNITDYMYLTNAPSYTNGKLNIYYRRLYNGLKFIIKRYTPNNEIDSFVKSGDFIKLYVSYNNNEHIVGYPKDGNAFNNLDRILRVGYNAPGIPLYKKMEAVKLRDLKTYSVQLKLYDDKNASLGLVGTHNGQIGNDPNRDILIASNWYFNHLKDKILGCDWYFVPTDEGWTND

B1: Antibody 5 (human monoclonal antibody against tetanus toxin) (antibody, V domains shown)
VH: QLVQSGAEVKKPGSSVKVSCKASGGTLSGFAINWVRQAPGQGLEWMGGIIPDTGSPTYVQRFQGRVTMTADKSTSTAYMELNSLRSDDTAVYYCARSVMITFGGVLTPPNFDFWGQGTLVTVSS
VL: DIQMTQSPSSLSASVGDRVTISCRASQAISIYLNWYQQRPGKAPRLLIYAASNLQSGVPSRFSASGSGTDFTLTISSLQPEDFATYYCQQSKENPPTFGQGTKLEIKR
As a reminder, the Kd is the free concentration of one partner at which half of the binding sites on the other are occupied at equilibrium, for simple one-to-one binding. As to B1, the affinity, expressed as Kd, was 0.16 nM.

B2: Antibody 4 (human monoclonal antibody against tetanus toxin) (antibody, V domains shown)
VH: EVQLVESGGGLVQPGGSLRLSCAASGFSFSRHWMSWVRQAPGKGLEWVANIHYDLSEKYFVDSVRGRFTISRDNAKNSLYLEMNSLRADDTAVYYCARGGRSTVWPRGWFDLWGQGTLVTVSS
VL: EIVLTQSPGTLSLSPGERATLSCRASQSVSSSYLAWYQQKPGQAPRLLIYGASGRATGIPDRFSGSGSGTHFTLTISRLEPEDFAVYFCQQFADSRTFGQGTKLEIKR
Turning to B2, binding was put at a Kd of 34 nM.

The values above are taken from patent WO2012007688A1 (dated 2012).
